Source: patent US20200017862

Biological target: WT His-tagged PCNA (recombinant Xenopus PCNA) (UniProt P18248)
Sequence (P18248 whole entry): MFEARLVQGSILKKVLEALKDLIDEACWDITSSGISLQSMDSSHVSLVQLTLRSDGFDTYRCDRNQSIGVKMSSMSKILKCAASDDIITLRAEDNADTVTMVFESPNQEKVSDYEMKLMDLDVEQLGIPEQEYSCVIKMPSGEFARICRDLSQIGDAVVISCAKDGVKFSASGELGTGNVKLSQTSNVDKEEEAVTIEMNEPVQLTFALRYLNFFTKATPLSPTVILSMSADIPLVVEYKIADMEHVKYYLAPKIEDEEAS

C470A GST-APE2 (mutant of full GST-APE2)
exonuclease activity on FAM-labeled gapped dsDNA, purified proteins in vitro: the gapped dsDNA structure was still resected by C470A APE2 or F486A-Y487A APE2 to some extent similar to WT APE2 with the presence of WT PCNA

F486A-Y487A GST-APE2 (mutant of full GST-APE2)
exonuclease activity on FAM-labeled gapped dsDNA, purified proteins in vitro: the gapped dsDNA structure was still resected by C470A APE2 or F486A-Y487A APE2 to some extent similar to WT APE2 with the presence of WT PCNA
